Molecular target: GST-NUPR1 (UniProt O60356)
Assay: SPR
Conditions: VHH

UniProt O60356, sequence (O60356 whole entry): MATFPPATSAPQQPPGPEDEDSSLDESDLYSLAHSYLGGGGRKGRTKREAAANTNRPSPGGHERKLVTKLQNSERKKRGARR

Q: Which Kd does the source give for “sdAb#07.81-3xFlag-cOdc1-Tat-6xHis (from UniProt P00860)” here?
A: Its Kd is 0.307 µM.

From publication PMC12748981
